Test results reported in US20030203869A1.
pIC50: −log10 of the molar value.

Target: purified HLA-A2.1 molecules (human)
Test: inhibition of binding of a labeled reference peptide to purified HLA-A2.1

Substance | pIC50
HBV Core 18 (HBV core 18-27) CTL epitope peptide […] (peptide; other documents disagree on this pair) | 8.52
HBV Pol 551-A (native HBV pol 551-559) CTL epitope peptide […] (peptide; other documents disagree on this pair) | 6.70
HIV Pol 476 (HIV pol 476-484) CTL epitope peptide […] (peptide; other documents disagree on this pair) | 6.72
